This note sets out measurements from article PMC6420622, “Mutations in the PKM2 exon-10 region are associated with reduced allostery and increased nuclear translocation” (Communications Biology, 2019).

The data set deals with the molecule itself. Description: crystal structure; PKM2 variant with Ser and FBP; hanging drop, 0.1 M Tris pH 7.5, 0.2 M NaCl, 14% PEG 3350, 4 °C; molecular replacement with PDB 4B2D.

B1: His-tagged PKM2 R399E (enzyme)
chain: not shown
notes: Pyruvate kinase isoform M2 (PKM2), engineered mutant R399E; full-length cDNA in pET28a, site-directed mutagenesis; Crystallised with Ser and FBP (PDB 5X0I); also called His-PKM2 R399E; source: E. coli BL21 (DE3), purified (cobalt-chelated TALON resin)
Regarding B1, the binding result was “binds”.
